T1: hisMRP-N (a.a. 48-721, the N-terminus of muramidase-released protein) (Streptococcus suis serotype 2 strain …, UniProt P32653 48-721, biotin (in the far-Western and on the BLI biosensors))
T1 chain: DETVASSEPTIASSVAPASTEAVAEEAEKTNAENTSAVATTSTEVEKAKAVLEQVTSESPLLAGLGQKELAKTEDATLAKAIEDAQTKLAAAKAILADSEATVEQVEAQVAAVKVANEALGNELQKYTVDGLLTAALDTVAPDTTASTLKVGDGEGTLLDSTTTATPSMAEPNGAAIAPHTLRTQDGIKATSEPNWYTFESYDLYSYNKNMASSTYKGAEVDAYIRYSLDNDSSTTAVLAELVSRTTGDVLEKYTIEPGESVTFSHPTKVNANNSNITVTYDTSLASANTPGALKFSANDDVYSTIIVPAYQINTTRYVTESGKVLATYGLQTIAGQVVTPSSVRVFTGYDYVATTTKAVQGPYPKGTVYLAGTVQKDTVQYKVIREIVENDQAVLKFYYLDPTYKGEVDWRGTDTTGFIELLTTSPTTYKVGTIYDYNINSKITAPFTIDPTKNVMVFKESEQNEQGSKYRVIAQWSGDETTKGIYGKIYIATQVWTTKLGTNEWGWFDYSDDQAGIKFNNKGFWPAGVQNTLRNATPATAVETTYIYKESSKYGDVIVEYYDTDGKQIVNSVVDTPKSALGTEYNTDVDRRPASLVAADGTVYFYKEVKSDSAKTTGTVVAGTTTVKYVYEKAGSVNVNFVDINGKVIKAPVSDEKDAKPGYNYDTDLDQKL

T2: human fibrinogen (human, UniProt P02671-2 20-644; P02675 31-491; P02679-2 27-437, biotin on hFg (which chain is not told) in the ELISA with immobilised MRP)
T2 construct: Fibrinogen Aα chain, human (63.5 kDa band); Fibrinogen Bβ chain, human (56 kDa band); Fibrinogen γ chain, human (47 kDa band); Three pairs of Aα, Bβ and γ chains; also called hFg; Fg; source: bought: Merck; copies: 2 + 2 + 2
T2 sequence (looked up) 1: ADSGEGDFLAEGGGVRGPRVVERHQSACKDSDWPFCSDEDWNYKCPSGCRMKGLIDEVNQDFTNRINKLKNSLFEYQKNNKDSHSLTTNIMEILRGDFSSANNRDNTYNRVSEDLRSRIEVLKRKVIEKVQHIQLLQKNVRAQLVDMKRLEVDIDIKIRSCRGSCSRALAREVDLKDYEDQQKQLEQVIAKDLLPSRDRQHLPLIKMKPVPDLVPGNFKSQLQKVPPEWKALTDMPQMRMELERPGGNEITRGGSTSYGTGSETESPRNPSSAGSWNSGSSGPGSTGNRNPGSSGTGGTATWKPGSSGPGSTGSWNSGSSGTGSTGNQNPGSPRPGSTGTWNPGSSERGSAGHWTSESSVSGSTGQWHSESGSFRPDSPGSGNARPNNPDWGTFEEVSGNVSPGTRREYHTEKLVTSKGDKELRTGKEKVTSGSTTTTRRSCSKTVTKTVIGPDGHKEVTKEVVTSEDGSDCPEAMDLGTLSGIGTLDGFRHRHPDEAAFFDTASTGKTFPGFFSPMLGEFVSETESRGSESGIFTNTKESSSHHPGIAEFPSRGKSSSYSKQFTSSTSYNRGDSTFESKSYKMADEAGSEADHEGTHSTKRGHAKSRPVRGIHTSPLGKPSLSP
T2 sequence (looked up) 2: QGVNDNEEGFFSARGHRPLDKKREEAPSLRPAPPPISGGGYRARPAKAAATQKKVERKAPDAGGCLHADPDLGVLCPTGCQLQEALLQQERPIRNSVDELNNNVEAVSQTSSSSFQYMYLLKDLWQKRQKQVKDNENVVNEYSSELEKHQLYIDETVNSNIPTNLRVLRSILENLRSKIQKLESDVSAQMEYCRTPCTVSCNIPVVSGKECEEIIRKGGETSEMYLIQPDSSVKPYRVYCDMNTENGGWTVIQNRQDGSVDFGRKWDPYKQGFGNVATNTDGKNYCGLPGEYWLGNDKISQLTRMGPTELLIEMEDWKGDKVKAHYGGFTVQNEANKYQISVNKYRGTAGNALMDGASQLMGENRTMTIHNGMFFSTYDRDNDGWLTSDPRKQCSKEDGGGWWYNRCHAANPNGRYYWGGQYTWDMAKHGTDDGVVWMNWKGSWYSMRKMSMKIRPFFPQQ
T2 sequence (looked up) 3: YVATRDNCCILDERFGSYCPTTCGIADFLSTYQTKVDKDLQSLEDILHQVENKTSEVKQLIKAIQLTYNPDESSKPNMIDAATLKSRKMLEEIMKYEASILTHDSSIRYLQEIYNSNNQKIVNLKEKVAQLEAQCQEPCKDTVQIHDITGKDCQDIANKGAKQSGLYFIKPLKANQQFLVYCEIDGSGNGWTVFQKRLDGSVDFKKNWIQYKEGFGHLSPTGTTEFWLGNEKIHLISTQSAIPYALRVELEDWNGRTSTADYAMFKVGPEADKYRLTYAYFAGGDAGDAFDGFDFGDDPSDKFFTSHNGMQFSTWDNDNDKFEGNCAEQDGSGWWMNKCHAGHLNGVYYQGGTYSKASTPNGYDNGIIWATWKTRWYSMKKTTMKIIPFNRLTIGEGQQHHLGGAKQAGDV

B1: human fibrinogen (complex)
chain 1: T2 sequence (looked up) 1
chain 2: T2 sequence (looked up) 2
chain 3: T2 sequence (looked up) 3
modifications: biotin on hFg (which chain is not told) in the ELISA with immobilised MRP
B2: hisMRP-N (a.a. 48-721, the N-terminus of muramidase-released protein) (domain or fragment)
chain: T1 chain
modifications: biotin (in the far-Western and on the BLI biosensors)
notes: Muramidase-released protein (MRP) of Streptococcus suis serotype 2 strain 05ZYH33, gene SSU05_0753, residues 48-721; also called hisMRP-N_(48-721); source: cloned into pET-28a, expressed, purified by Ni-chelating chromatography

Legend:
[1] = target: T1, hisMRP-N (a.a. 48-721, the N-terminus …); assay: BLI
human fibrinogen = target: T2, human fibrinogen; assay: BLI; biotinylated MRP-N proteins immobilised on streptavidin biosensors, hFg, Fg-D or Fg-E as analyte, PBST, 1:1 binding model; conditions: both partners purified

Row | Binder | koff [1] | Kd (human fibrinogen)
1 | B1 | 0.0989 s⁻¹ | 
2 | B2 |  | 340 nM

From PMC4882601, “Binding of Human Fibrinogen to MRP Enhances Streptococcus suis Survival in Host Blood in a αXβ2 Integrin-dependent Manner” (Scientific Reports, 2016)
